Measurements taken from article PMC4301919, “Helical Defects in MicroRNA Influence Protein Binding by TAR RNA Binding Protein”.

How the values were obtained:
TRBP-ΔC-RBD2-Null [1] = target: T1, TRBP-ΔC-RBD2-Null (UniProt Q15633-2 9-215, K150A;K189A;K190A); assay: EMSA; apparent Kd; nH 3.2; 50 mM sodium cacodylate pH 7.0, 50 mM potassium glutamate, 5% glycerol; EMSA 0.5 pM RNA, 30 min at room temperature, gel 0.25X TBE at 10 C; CD at 10 C with 5-15 uM RNA; conditions: protein: recombinant; label: 5'-32P top strand (EMSA); blunt
T1 sequence: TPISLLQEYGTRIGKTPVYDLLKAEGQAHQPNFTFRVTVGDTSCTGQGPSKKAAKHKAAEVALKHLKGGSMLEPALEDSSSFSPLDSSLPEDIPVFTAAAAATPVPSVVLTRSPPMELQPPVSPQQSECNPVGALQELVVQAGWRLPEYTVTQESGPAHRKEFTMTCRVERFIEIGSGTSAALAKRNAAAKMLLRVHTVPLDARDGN

TRBP-ΔC-RBD1-Null [2] = target: T2, TRBP-ΔC-RBD1-Null (UniProt Q15633-2 9-215, K23A;K59A;K60A); assay: EMSA; apparent Kd; nH 3.1; 50 mM sodium cacodylate pH 7.0, 50 mM potassium glutamate, 5% glycerol; EMSA 0.5 pM RNA, 30 min at room temperature, gel 0.25X TBE at 10 C; CD at 10 C with 5-15 uM RNA; conditions: protein: recombinant; label: 5'-32P top strand (EMSA); blunt
T2 sequence: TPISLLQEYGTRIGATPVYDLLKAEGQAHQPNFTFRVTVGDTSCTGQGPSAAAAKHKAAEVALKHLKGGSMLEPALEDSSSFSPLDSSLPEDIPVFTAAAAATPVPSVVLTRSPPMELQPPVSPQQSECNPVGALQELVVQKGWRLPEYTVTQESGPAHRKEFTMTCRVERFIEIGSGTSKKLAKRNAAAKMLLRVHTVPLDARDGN

TRBP-ΔC-RBD1-Null [3] = target: T2, TRBP-ΔC-RBD1-Null; assay: EMSA; apparent Kd; nH 3.0; 50 mM sodium cacodylate pH 7.0, 50 mM potassium glutamate, 5% glycerol; EMSA 0.5 pM RNA, 30 min at room temperature, gel 0.25X TBE at 10 C; CD at 10 C with 5-15 uM RNA; conditions: protein: recombinant; label: 5'-32P top strand (EMSA); blunt
TRBP-ΔC-RBD2-Null [4] = target: T1, TRBP-ΔC-RBD2-Null; assay: EMSA; apparent Kd; nH 3.4; 50 mM sodium cacodylate pH 7.0, 50 mM potassium glutamate, 5% glycerol; EMSA 0.5 pM RNA, 30 min at room temperature, gel 0.25X TBE at 10 C; CD at 10 C with 5-15 uM RNA; conditions: protein: recombinant; label: 5'-32P top strand (EMSA); blunt
TRBP-ΔC-RBD2-Null [5] = target: T1, TRBP-ΔC-RBD2-Null; assay: EMSA; apparent Kd; nH 2.0; 50 mM sodium cacodylate pH 7.0, 50 mM potassium glutamate, 5% glycerol; EMSA 0.5 pM RNA, 30 min at room temperature, gel 0.25X TBE at 10 C; CD at 10 C with 5-15 uM RNA; conditions: protein: recombinant; label: 5'-32P top strand; imperfect duplex with U-bulge and A-A mismatch

B1: ds22 (dsRNA)
RNA 1: GUCAGCAGUGCCUUAGCAGCAC
RNA 2: GUGCUGCUAAGGCACUGCUGAC
Which Kd (TRBP-ΔC-RBD2-Null [1]) does the source give for B1 here?
The Kd was 340 ± 10 nM.

And the Kd (TRBP-ΔC-RBD1-Null [2])?
The Kd was 2290 ± 80 nM.

B2: ds33 (dsRNA)
RNA 1: GGUCAGCAGUGCCUUAGCAGCACGUAAAUAUGG
RNA 2: CCAUAUUUACGUGCUGCUAAGGCACUGCUGACC
What does the source list for B2?
Kd (TRBP-ΔC-RBD1-Null [3]): 1220 ± 70 nM; Kd (TRBP-ΔC-RBD2-Null [4]): 440 ± 50 nM

B3: miR-16-1/miR-16-1* (dsRNA)
RNA 1: UAGCAGCACGUAAAUAUUGGCG
RNA 2: CCAGUAUUAACUGUGCUGCUGAA
Which Kd (TRBP-ΔC-RBD2-Null [5]) does the source give for B3 here?
Its Kd is 900 ± 100 nM.
